± gives the standard error. Fewer inactive variants are shown than the library holds.
B1: glmS ribozyme (parent)
chain: AUAAAAGCGCCAGAACUACAGAAAUGUAGUUGACGAGGAGGAGGUUUAUCGAAUUUUCGGCGGAUGCCUCCAAA

How the values were obtained:
Settings in all cases: with glucosamine-6-phosphate
glucosamine-6-phosphate [1] = variants of: B1; experiment: self-cleavage kobs at 160 uM GlcN6P; higher = faster cleavage; RNA array
Method in brief: (§1)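 A hybridised Cy3 probe tracked barcoded ribozyme variants, transcribed in situ by E. coli RNA polymerase on sequenced MiSeq chips, at 37 °C. The variants received 40 μM to 10 mM glucosamine-6-phosphate in HEPES/KCl/Mg(OAc)2 buffer. kobs came from decay fits and kcat and KM from weighted Michaelis–Menten fits.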

glucosamine-6-phosphate [2] = variants of: B1; experiment: self-cleavage kobs at 640 uM GlcN6P; higher = faster cleavage; RNA array
Method in brief: as §1

glucosamine-6-phosphate [3] = variants of: B1; experiment: self-cleavage kobs at 2500 uM GlcN6P; higher = faster cleavage; RNA array
Method in brief: as §1

glucosamine-6-phosphate [4] = variants of: B1; experiment: self-cleavage kobs at 10000 uM GlcN6P; higher = faster cleavage; RNA array
Method in brief: as §1

Variant	self-cleavage kobs at 160 uM GlcN6P (glucosamine-6-phosphate [1])	self-cleavage kobs at 640 uM GlcN6P (glucosamine-6-phosphate [2])	self-cleavage kobs at 2500 uM GlcN6P (glucosamine-6-phosphate [3])	self-cleavage kobs at 10000 uM GlcN6P (glucosamine-6-phosphate [4])
G38C A42C	< 1e-05 s⁻¹	< 1e-05 s⁻¹	< 1e-05 s⁻¹	< 1e-05 s⁻¹
U57C G60U	< 1e-05 s⁻¹	< 1e-05 s⁻¹	< 1e-05 s⁻¹	< 1e-05 s⁻¹
A6C A12C A39C C67U		< 1e-05 s⁻¹	< 1e-05 s⁻¹	< 1e-05 s⁻¹
G44A G51U	< 1e-05 s⁻¹			< 1e-05 s⁻¹
A6C A33G U46C C61G		< 1e-05 s⁻¹	< 1e-05 s⁻¹	
A6G A14U C16G U56A		< 1e-05 s⁻¹		
G59A G62U	< 1e-05 s⁻¹		< 1e-05 s⁻¹	
G41U G63C	< 1e-05 s⁻¹		< 1e-05 s⁻¹	< 1e-05 s⁻¹
A6G C58U U69A		0.000521 ± 0.00019 s⁻¹		
A53U G59U C61U G66U	< 1e-05 s⁻¹		< 1e-05 s⁻¹	
A6C C16G G32U A33G G38U		< 1e-05 s⁻¹		< 1e-05 s⁻¹
U54C U56A G59C U65A	< 1e-05 s⁻¹		< 1e-05 s⁻¹	
A6G A14C G38U		< 1e-05 s⁻¹		< 1e-05 s⁻¹
G40U G43C C68G	0.000486 ± 0.00015 s⁻¹	0.000552 ± 0.00012 s⁻¹	0.00105 ± 0.00026 s⁻¹	
G38C A39G	< 1e-05 s⁻¹	< 1e-05 s⁻¹		
A6G A36G G41A		< 1e-05 s⁻¹		< 1e-05 s⁻¹
U56A G60C	< 1e-05 s⁻¹	< 1e-05 s⁻¹	< 1e-05 s⁻¹	
A6C G13A G38A C58U		< 1e-05 s⁻¹		
A6G A53G C61A		< 1e-05 s⁻¹	< 1e-05 s⁻¹	
A6G C11A G59U G60C		< 1e-05 s⁻¹		
G43A G60C	< 1e-05 s⁻¹	< 1e-05 s⁻¹	< 1e-05 s⁻¹	< 1e-05 s⁻¹
G51U G62U A64C	< 1e-05 s⁻¹			
A39G G62A	< 1e-05 s⁻¹		< 1e-05 s⁻¹	< 1e-05 s⁻¹
G38C U46G A64U	< 1e-05 s⁻¹	< 1e-05 s⁻¹		
A6C U45C G51C U65G C70G		< 1e-05 s⁻¹	< 1e-05 s⁻¹	
U2A		0.0236 ± 0.0098 s⁻¹		
G38C G43A	< 1e-05 s⁻¹	< 1e-05 s⁻¹	< 1e-05 s⁻¹	< 1e-05 s⁻¹

Variant	self-cleavage kobs at 160 uM GlcN6P (glucosamine-6-phosphate [1])	self-cleavage kobs at 640 uM GlcN6P (glucosamine-6-phosphate [2])	self-cleavage kobs at 2500 uM GlcN6P (glucosamine-6-phosphate [3])	self-cleavage kobs at 10000 uM GlcN6P (glucosamine-6-phosphate [4])
C50U C70G	0.000293 ± 0.00013 s⁻¹	8.51e-05 ± 1.6e-05 s⁻¹	6.07e-05 ± 1.3e-05 s⁻¹	
U47C G62C	< 1e-05 s⁻¹	< 1e-05 s⁻¹	< 1e-05 s⁻¹	< 1e-05 s⁻¹
C50G G62U G66C C70A	7.6e-05 ± 1.6e-05 s⁻¹	0.000118 ± 2.5e-05 s⁻¹		
C50U U56C C68U C70U	< 1e-05 s⁻¹			
A4C G32U U47G		8.66e-05 ± 2.2e-05 s⁻¹	0.000118 ± 3.5e-05 s⁻¹	
U46G U49G G63A A64C	< 1e-05 s⁻¹	< 1e-05 s⁻¹	< 1e-05 s⁻¹	
G43C U55G U56G C67G	< 1e-05 s⁻¹			
A53C U56A G59C G63U	< 1e-05 s⁻¹	< 1e-05 s⁻¹	< 1e-05 s⁻¹	
U2C G32U G44A U47G		< 1e-05 s⁻¹	< 1e-05 s⁻¹	
U46G C58G U69G	6.07e-05 ± 2.5e-05 s⁻¹			
A6C G41A C68A U69C		< 1e-05 s⁻¹		< 1e-05 s⁻¹
G44C A64U	< 1e-05 s⁻¹		< 1e-05 s⁻¹	
U49C G62A	< 1e-05 s⁻¹	< 1e-05 s⁻¹		< 1e-05 s⁻¹
U49C G62U	< 1e-05 s⁻¹	< 1e-05 s⁻¹	< 1e-05 s⁻¹	< 1e-05 s⁻¹
G40C C50U U57A C58G U65A	< 1e-05 s⁻¹		< 1e-05 s⁻¹	
U49C A53C	< 1e-05 s⁻¹	< 1e-05 s⁻¹	< 1e-05 s⁻¹	
A42C A52G U55A U57G C68U C70U	< 1e-05 s⁻¹	< 1e-05 s⁻¹	< 1e-05 s⁻¹	
A39C G60C	< 1e-05 s⁻¹			< 1e-05 s⁻¹
A6G C61G C71G		7.45e-05 ± 2.4e-05 s⁻¹		
G37A G38A	< 1e-05 s⁻¹	< 1e-05 s⁻¹	< 1e-05 s⁻¹	< 1e-05 s⁻¹
G38U G43U U65C	< 1e-05 s⁻¹			
G59U C67U C68U U69C	4.87e-05 ± 2.4e-05 s⁻¹			
A6G G7U U31C A36C		< 1e-05 s⁻¹	< 1e-05 s⁻¹	
G41U C68U U69C	< 1e-05 s⁻¹	< 1e-05 s⁻¹	< 1e-05 s⁻¹	
U55G C68A	0.000151 ± 6.4e-05 s⁻¹	6.91e-05 ± 2.2e-05 s⁻¹	9.69e-05 ± 1.8e-05 s⁻¹	2.8e-05 ± 1.4e-05 s⁻¹
A42G G62C	< 1e-05 s⁻¹	< 1e-05 s⁻¹	< 1e-05 s⁻¹	< 1e-05 s⁻¹
